Target: the molecule itself
Experiment: SEC

B1: EcPAPR4cys (enzyme, Escherichia coli)
chain: MSKLDLNALNELPKVDRILALAETNAELEKLDAEGRVAWALDNLPGEYVLSSSFGIQAAVSLHLVNQIRPDIPVILTDTGYLFPETYRFIDELTDKLKLNLKVYRATESAAWQEARYGKLWEQGVEGIEKCCDINKVEPMNRALKELNAQTWFAGLRREQSGSRANLPVLAIQRGVFKVLPIIDWDNRTIYQYLQKHGLKYHPLWDEGYLSVGCTHCTRKWEPGMAEEETRFFGLKRECGLHEG
  stoichiometry N: 2
